Paper PMC4381055

B1: rrnAP3 150 bp template, +2 Cy3 (dsDNA)
DNA 1: AAAATAGGCGTATCACGAGGCCCTTTCGTCTTCAAGAATTCGTCTTGACTCCATTGCCGGATTTGTATTAGACTGGCAGGGTTGAAGCTTATGTATCACCTGACGTCATGATGAACTCAGAAGTGAAACTACGTATATCCGATGGTAGTG
DNA 2: CACTACCATCGGATATACGTAGTTTCACTTCTGAGTTCATCATGACGTCAGGTGATACATAAGCTTCAACCCTGCCAGTCTAATACAAATCCGGCAATGGAGTCAAGACGAATTCTTGAAGACGAAAGGGCCTCGTGATACGCCTATTTT
modifications: C6-amine on non-template +2 T

Columns and labels:
[1] = molecular target: EcoRNAP sigma70 holoenzyme (Escherichia coli) (UniProt P0A7Z4+P0A8V2+P0A8T7+P0A800+P00579); experiment: stopped-flow Cy3 fluorescence enhancement; conditions: scale: fold fluorescence enhancement
[2] = molecular target: EcoRNAP sigma70 holoenzyme (Escherichia coli, UniProt P0A7Z4;P0A8V2;P0A8T7;P0A800;P00579 1-329;1-1342;1-1407;2-91;1-613); experiment: 25 C, no CarD

Row | Molecule | binding signal [1] | apparent K (half saturation) [2] [nM]
1 | template lacking rrnAP3 promoter, Cy3 | 0.05 | –
2 | B1 | – | 23
